Assays:
[1] = target: Vip3Aa64 protoxin, wild type (Bacillus thuringiensis); experiment: AUC
[2] = target: Vip3Aa64 protoxin, wild type (Bacillus thuringiensis); experiment: mass photometry

Q: For “Vip3Aa64 protoxin, wild type (natural protein)”, which stoichiometry N [1] is on record?
A: 4

Q: And the stoichiometry N [2]?
A: 4
